Assay results published in patent US20240247080A1, “GLP1/GIP/NPY2 RECEPTOR TRIPLE AGONISTS” (Boehringer Ingelheim International GmbH, priority 2022, published 2024).
Changes are numbered by the printed parent chain. Starred links: 1 amine or outer side, 2 acyl side, 3 side chain; linkers in the order of their positions; H or OH if unused. Non-standard residues stand in square brackets, D forms with d. Groups on a side chain read outwards from the residue. No end group written: not given here. *: point of attachment. C20 diacid = O=C(O)CCCCCCCCCCCCCCCCCCC(=O)*; γGlu = O=C(O)[C@H](CCC(=O)[*:2])N[*:1]; εLys = N[C@@H](CCCCN[*:1])C(=O)[*:2]; AEEA = NCCOCCOCC(=O)O; Aib = CC(C)(N)C(=O)O

T1: GIP receptor (human (printed as hGIPR), UniProt P48546 22-466)
T1 sequence (looked up): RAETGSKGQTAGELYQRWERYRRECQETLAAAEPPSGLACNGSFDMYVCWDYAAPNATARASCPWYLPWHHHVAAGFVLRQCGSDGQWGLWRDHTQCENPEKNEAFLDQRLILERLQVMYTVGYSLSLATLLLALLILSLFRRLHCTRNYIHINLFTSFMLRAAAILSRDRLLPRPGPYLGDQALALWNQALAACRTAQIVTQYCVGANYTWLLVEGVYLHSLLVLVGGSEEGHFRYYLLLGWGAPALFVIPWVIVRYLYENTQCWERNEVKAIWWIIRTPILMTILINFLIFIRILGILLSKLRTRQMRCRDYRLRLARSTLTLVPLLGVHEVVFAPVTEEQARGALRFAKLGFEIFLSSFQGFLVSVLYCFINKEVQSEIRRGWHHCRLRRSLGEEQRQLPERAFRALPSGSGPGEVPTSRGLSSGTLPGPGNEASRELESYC

T2: NPY2 receptor (human (printed as hNPY2R), UniProt P49146 1-381)
T2 sequence (looked up): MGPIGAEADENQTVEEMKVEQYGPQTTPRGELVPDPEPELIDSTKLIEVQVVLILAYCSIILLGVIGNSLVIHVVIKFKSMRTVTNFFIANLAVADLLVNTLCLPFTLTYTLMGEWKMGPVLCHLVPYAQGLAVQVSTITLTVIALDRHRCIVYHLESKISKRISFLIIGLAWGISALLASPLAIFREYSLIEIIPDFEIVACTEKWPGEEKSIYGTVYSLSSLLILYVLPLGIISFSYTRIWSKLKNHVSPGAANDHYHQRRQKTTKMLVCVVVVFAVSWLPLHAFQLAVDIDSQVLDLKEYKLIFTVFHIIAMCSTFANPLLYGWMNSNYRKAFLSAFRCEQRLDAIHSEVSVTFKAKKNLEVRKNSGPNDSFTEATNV

B1: Compound 238 (peptide)
peptide: YXEGTFTSDYSIXLEKQAQXAFVEWLIKGGPSSGASLRHYYNWLTRQRY
modifications: Aib at 2, 13, 20; K28 side chain carries C20DA-gGlu-gGlu-gGlu-gGlu-gGlu; C-terminal amide
B2: Compound 237 (peptide)
peptide: B1 peptide with S33E, A35E
modifications: Aib at 2, 13, 20; K28 side chain carries C20DA-gGlu-gGlu-gGlu-gGlu-gGlu-gGlu-eLys; C-terminal amide
B3: Compound 246 (peptide)
peptide: B1 peptide with E24Q, S33E
modifications: Aib at 2, 13, 20; K28 side chain carries C18DA-gGlu-gGlu-gGlu-gGlu-gGlu-OEG-OEG; C-terminal amide
B4: Compound 233 (peptide)
peptide: B1 peptide with S33E, G34P
modifications: Aib at 2, 13, 20; K28 side chain carries C20DA-gGlu-gGlu-gGlu-gGlu-gGlu-gGlu-eLys; C-terminal amide

What was measured:
Test in all cases: cell-based or functional assay
GLP-1 receptor = GLP-1 receptor (human (printed as hGLP1R), UniProt P43220 24-463)
GIP receptor = target: T1, GIP receptor
NPY2 receptor = target: T2, NPY2 receptor

| Binder | EC50 hGLP1R 0.5% hP (CreLuc) (GLP-1 receptor) [nM] | EC50 hGLP1R 100% hP (CreLuc) (GLP-1 receptor) [nM] | EC50 hGIPR 0.5% hP (CreLuc) (GIP receptor) [nM] | EC50 hGIPR 100% hP (CreLuc) (GIP receptor) [nM] | EC50 hNPY2R 0.5% hP (CreLuc) (NPY2 receptor) [nM] | EC50 hNPY2R 100% hP (CreLuc) (NPY2 receptor) [nM] |
| --- | --- | --- | --- | --- | --- | --- |
| B1 | 0.1 | 2.55 | 0.52 | 1.59 | 11.6 | 49.4 |
| B2 | 0.26 | 3.11 | 0.1 | 1.17 | 18 | 45.5 |
| B3 | 0.11 | 2.7 | 0.16 | 0.95 | 12.8 | 28.2 |
| B4 | 0.17 | 1.7 | 0.08 | 0.75 | 12.6 | 27.1 |
| Y[Aib]EGTFTSDYSI[Aib]LEKQAQ[Aib]AFVQWLIKGGPSEGASLRHYYNWLTRQRY-NH2 (not fully specified (residue 28); also: TFA salt) [Compound 243] | 0.12 | 5.96 | 0.54 | 2.97 | 9.16 | 50.6 |
| Y[Aib]EGTFTSDYSI[Aib]LEKQAQ[Aib]AFVQWLIK([εLys-Glu-Glu-Glu-Glu-Glu-C20 diacid])GGPSEGASLRHYYNWLTRQRY-NH2 (also: TFA salt) [Compound 240] | 0.14 | 6.74 | 0.33 | 1.97 | 10.7 | 77.5 |
| Y[Aib]EGTFTSDYSI[Aib]LEKQAQ[Aib]AFVQWLIKGGPSEGASLRHYYNWLTRQRY-NH2 (not fully specified (residue 28); also: TFA salt) [Compound 245] | 0.09 | 3.78 | 0.37 | 1.74 | 24.5 | 66.9 |
| Y[Aib]EGTFTSDYSI[Aib]LEKQAQ[Aib]AFVEWLIK([εLys-γGlu-γGlu-γGlu-γGlu-γGlu-C20 diacid])GGPEEGASLRHYYNWLTRQRY-NH2 (also: TFA salt) [Compound 230] | 0.29 | 8.23 | 0.28 | 1.43 | 15.4 | 59.1 |
| Y[Aib]EGTFTSDYSI[Aib]LEKQAQ[Aib]AFVQWLIK([AEEA-AEEA-Glu-Glu-Glu-Glu-C20 diacid])GGPSEGASLRHYYNWLTRQRY-NH2 (also: TFA salt) [Compound 239] | 0.11 | 4.76 | 0.35 | 1.55 | 13.6 | 57 |
